# What was measured:
# [1] = biological target: AP205 cVLP displaying SpyCatcher (SpyC-cVLP) (Acinetobacter phage AP205); assay: covalent SpyTag/SpyCatcher coupling shown by reduced SDS-PAGE with densitometry; FL PCSK9-SpyT in 100 mM HEPES, 500 mM NaCl, pH 7 mixed 1:1.2 (cVLP subunit per antigen) with SpyC-cVLP, HEPES to 250 mM and L-Arginine to 500 mM, overnight at 4 °C; coupling band on reduced SDS-PAGE; coupling efficiency by densitometry
# [2] = biological target: AP205 cVLP displaying SpyTag (SpyT-cVLP) (Acinetobacter phage AP205); assay: covalent SpyTag/SpyCatcher coupling shown by reduced SDS-PAGE with densitometry; SpyT-cVLP and SpyC-PCSK9 antigen mixed in a 1:2 molar ratio in PBS, pH 7.4, overnight at 4 °C; coupling band on reduced SDS-PAGE; coupling efficiency = coupled cVLP subunits/(coupled + uncoupled cVLP subunits) by densitometry
Substance,antigen coupling efficiency (percentage of binding sites per cVLP conjugated to an antigen) [1] [%],antigen coupling efficiency (percentage of binding sites per cVLP conjugated to an antigen) [2] [%]
FL PCSK9-SpyT (muPCSK9(35–694) R221S-SpyT),40,–
SpyC-PCSK9(156–227) (from UniProt Q80W65 156-227),–,60
SpyC-PCSK9(210–226) (from UniProt Q80W65 210-226),–,80

# Reference: PMC9864010
